Experimental data from the Human Domainome abundance scans (Beltran et al. 2025).
± gives the uncertainty stated by the source.

B1: Double-stranded RNA-specific adenosine deaminase, residues 296 to 358; numbered along this chain, P55265 (parent)
chain: MAEIKEKICDYLFNVSDSSALNLAKNIGLTKARDINAVLIDMERQGDVYRQGTTPPIWHLTDK

Variants of: B1
Assay: abundance fitness (aPCA) (normalised: wild type 0, dead -1); higher = more abundant; growth selection in yeast, the domain comes from the species named
Conditions: Homo sapiens

Row | Variant | abundance fitness
1 | MAEIKEKICDYLFNVSDSSALNLAKNIGLTKARDINAVLIDMERYGDVYRQGTTPPIWHLTDK [Q45Y] | -0.637 ± 0.081
2 | MAEIKEKICDYLFNVSDSSALNLAKNIGLEKARDINAVLIDMERQGDVYRQGTTPPIWHLTDK [T30E] | 0.361 ± 0.051
3 | MAEIKEKICDYQFNVSDSSALNLAKNIGLTKARDINAVLIDMERQGDVYRQGTTPPIWHLTDK [L12Q] | -0.512 ± 0.16
4 | MAEIKEKICDYLFNVSDSSALNLAKNIGLTKARDINAVLIDMEGQGDVYRQGTTPPIWHLTDK [R44G] | -0.334 ± 0.05
5 | MAEIKEKICDYLFNVSDSSALNLAKNIGLTKARDINAVLIDMEHQGDVYRQGTTPPIWHLTDK [R44H] | -0.274 ± 0.13
6 | MAEIKEKICDYLFNVSDSSALNLAKNIGLTKARDINAVLIDMERQGDVYRQGTRPPIWHLTDK [T54R] | -0.18 ± 0.046
7 | MAEIKEKICDYLFNYSDSSALNLAKNIGLTKARDINAVLIDMERQGDVYRQGTTPPIWHLTDK [V15Y] | -0.202 ± 0.096
8 | MAEIKEKICDYLFNFSDSSALNLAKNIGLTKARDINAVLIDMERQGDVYRQGTTPPIWHLTDK [V15F] | 0.045 ± 0.12
9 | MAEIKEKICDYLFNVSDSSAANLAKNIGLTKARDINAVLIDMERQGDVYRQGTTPPIWHLTDK [L21A] | 0.263 ± 0.068
10 | MAEIKEKICDYLFNVSDSSAGNLAKNIGLTKARDINAVLIDMERQGDVYRQGTTPPIWHLTDK [L21G] | 0.009 ± 0.052
11 | MAEIKEKICDYLFNVSDSSALNLAKNIGLTKARDINAVLIDMERQGDVYRQGTTPPIWHLTEK [D62E] | 0.072 ± 0.078
12 | MAEIKEKICDYLFNVSDSSALNLAKNIGLTKARDINAVLIDMERQGDVYRQGTTPPIWHLTCK [D62C] | -0.185 ± 0.062
13 | MAEIKEKICDYLFNVSDSSALNLAKNIGLTKAFDINAVLIDMERQGDVYRQGTTPPIWHLTDK [R33F] | 0.19 ± 0.085
14 | MAEIKEKICDYLFFVSDSSALNLAKNIGLTKARDINAVLIDMERQGDVYRQGTTPPIWHLTDK [N14F] | -0.385 ± 0.083
15 | MAEIKEKICDYLFNVSDSSALNLAKNIGLTKARDINAVLIDMERQGDVYRQGTTPPIWKLTDK [H59K] | 0.294 ± 0.065
16 | MAEIKEKICDYLFNVSDSSALNLAKNIGLTKARDINAVLIDMERQGDVYRQGTTPPIWQLTDK [H59Q] | -0.175 ± 0.059
17 | MAEIKEKICDYLFNVSDSSALNLAKNIGLTKARDINAVLIDMERQGFVYRQGTTPPIWHLTDK [D47F] | -0.177 ± 0.086
18 | MAEIKEKICDYLFNVSDSSALNLAKNIGLTKARDIMAVLIDMERQGDVYRQGTTPPIWHLTDK [N36M] | -0.184 ± 0.048
19 | MAEIKEKICDYLFNVSDSSALNLAKNIGLTKARLINAVLIDMERQGDVYRQGTTPPIWHLTDK [D34L] | -0.444 ± 0.049
20 | MAEIKEKICDYLFNVSDSSALNLAKNIGLTKARFINAVLIDMERQGDVYRQGTTPPIWHLTDK [D34F] | -0.75 ± 0.09
21 | MAEIKEKICDYLFNVSDSSALNLAKNIGLTKARQINAVLIDMERQGDVYRQGTTPPIWHLTDK [D34Q] | -0.283 ± 0.073

Row | Variant | abundance fitness
22 | MAEIKEKICDYLFNVSDSSALNLAKNIGLTKARDINAVLIDMERQGDVYRFGTTPPIWHLTDK [Q51F] | -0.658 ± 0.095
23 | MAEIKEKICDYLFNVSDSSALNLAKNIGLTKMRDINAVLIDMERQGDVYRQGTTPPIWHLTDK [A32M] | 0.088 ± 0.067
24 | MAEIKEKICDYLFNVSDVSALNLAKNIGLTKARDINAVLIDMERQGDVYRQGTTPPIWHLTDK [S18V] | -0.699 ± 0.062
25 | MAEIKEKICDYLFNVSDSSALNLAKNIGLTKARDINAVLIDMERQGDVYRQGTTPPIWHSTDK [L60S] | -0.437 ± 0.059
26 | MAEIKEKICDMLFNVSDSSALNLAKNIGLTKARDINAVLIDMERQGDVYRQGTTPPIWHLTDK [Y11M] | -0.429 ± 0.066
27 | MAEIKEKICDALFNVSDSSALNLAKNIGLTKARDINAVLIDMERQGDVYRQGTTPPIWHLTDK [Y11A] | -0.126 ± 0.047
28 | MAEIKEKICDYLFNVSDSSALNLAKNIGLTKARDINAVLIDMERQGDVYRQGTTDPIWHLTDK [P55D] | 0.06 ± 0.07
29 | MAEIKEKICDYLFNVSDSSALNLAKNIGLTKARDINAVLIDMERQGDVCRQGTTPPIWHLTDK [Y49C] | 0.078 ± 0.059
30 | MAEIKEKICLYLFNVSDSSALNLAKNIGLTKARDINAVLIDMERQGDVYRQGTTPPIWHLTDK [D10L] | -0.568 ± 0.053
31 | MAGIKEKICDYLFNVSDSSALNLAKNIGLTKARDINAVLIDMERQGDVYRQGTTPPIWHLTDK [E3G] | -0.18 ± 0.056
32 | MAEIKEKICDYLFNVSDSSALNLAKNIGLTSARDINAVLIDMERQGDVYRQGTTPPIWHLTDK [K31S] | 0.285 ± 0.042
33 | MAEIKEKICDYLFNVSDSSALNLAKNIGLTTARDINAVLIDMERQGDVYRQGTTPPIWHLTDK [K31T] | 0.066 ± 0.055
34 | MAEIKEKQCDYLFNVSDSSALNLAKNIGLTKARDINAVLIDMERQGDVYRQGTTPPIWHLTDK [I8Q] | -0.137 ± 0.11
35 | MAEIKEKACDYLFNVSDSSALNLAKNIGLTKARDINAVLIDMERQGDVYRQGTTPPIWHLTDK [I8A] | -0.564 ± 0.13
36 | MAEIKVKICDYLFNVSDSSALNLAKNIGLTKARDINAVLIDMERQGDVYRQGTTPPIWHLTDK [E6V] | -0.589 ± 0.069
37 | MAEIKRKICDYLFNVSDSSALNLAKNIGLTKARDINAVLIDMERQGDVYRQGTTPPIWHLTDK [E6R] | -0.338 ± 0.056
38 | MAEIKEKICDYLFNVSDSSALNLAKNIGLTKARDINAVLIDMERQGDVYRQGATPPIWHLTDK [T53A] | -0.033 ± 0.48
39 | MAEIKEKICDYLFNVQDSSALNLAKNIGLTKARDINAVLIDMERQGDVYRQGTTPPIWHLTDK [S16Q] | -0.124 ± 0.063
40 | MAEIKEKICDYLFNVNDSSALNLAKNIGLTKARDINAVLIDMERQGDVYRQGTTPPIWHLTDK [S16N] | -0.006 ± 0.087
41 | MAEIKEKICDYLFNVVDSSALNLAKNIGLTKARDINAVLIDMERQGDVYRQGTTPPIWHLTDK [S16V] | -0.249 ± 0.061
